Reference: article doi:10.1101/2023.01.25.525508

T1: TIA1 full-length (fl TIA1) (Mus musculus, UniProt P52912 1-386)
T1 sequence: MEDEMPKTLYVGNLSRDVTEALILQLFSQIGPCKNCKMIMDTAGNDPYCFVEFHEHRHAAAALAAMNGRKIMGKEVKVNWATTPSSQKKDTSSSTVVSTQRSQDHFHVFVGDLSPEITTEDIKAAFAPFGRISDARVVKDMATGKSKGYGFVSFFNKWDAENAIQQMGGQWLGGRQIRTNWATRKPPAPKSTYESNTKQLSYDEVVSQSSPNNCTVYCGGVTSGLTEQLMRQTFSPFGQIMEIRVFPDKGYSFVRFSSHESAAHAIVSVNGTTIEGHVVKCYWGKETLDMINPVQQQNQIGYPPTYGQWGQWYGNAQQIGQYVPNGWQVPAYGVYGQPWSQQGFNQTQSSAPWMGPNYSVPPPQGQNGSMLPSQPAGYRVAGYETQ


Key:
[1] = molecular target: T1, TIA1 full-length (fl TIA1); experiment: solid-state NMR
[2] = molecular target: T1, TIA1 full-length (fl TIA1); experiment: ITC

| Binder | binding result [1] | Kd [2] |
| --- | --- | --- |
| TTTTTACTCCAAAAAAAATTTTTACTCCAAAAAAAATTTTTACTCC (ssDNA) [(TC1-A8)2-TC1] | binds |  |
| TTTTTACTCC (ssDNA) [TC1] |  | 263 ± 60 nM |
